Assay results: article PMC8550936

Assays:
[1] = molecular target: Venezuelan equine encephalitis virus (VEEV) virus-like particles (Venezuelan equine encephalitis virus, strain TC-83) (UniProt P09592); assay: SPR; Biacore T200; […]; 30 µl/min, 25 °C, HBS-P plus 1 mM CaCl2; global 1:1 fit; […]
[2] = molecular target: Venezuelan equine encephalitis virus (VEEV) virus-like particles (Venezuelan equine encephalitis virus, strain TC-83) (UniProt P09592); assay: cryo-EM structure

LDLRAD3(D1), cleaved monomeric ectodomain of mouse low-density lipoprotein receptor class A domain-c, sequence (A2AR95 18-70): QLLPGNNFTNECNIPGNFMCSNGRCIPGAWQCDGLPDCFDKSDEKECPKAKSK
LDLRAD3(D1+D2), cleaved monomeric ectodomain of mouse LDLRAD3, domains 1 and 2, sequence (A2AR95 18-112): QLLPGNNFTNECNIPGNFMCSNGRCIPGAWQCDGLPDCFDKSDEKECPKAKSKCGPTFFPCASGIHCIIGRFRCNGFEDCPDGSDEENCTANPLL

Row | Substance | Kd [1] [nM] | stoichiometry N (molecules of LDLRAD3(D1) per VLP) [2]
1 | LDLRAD3(D1+D2), cleaved monomeric ectodomain of mouse LDLRAD3, domains 1 and 2 (from UniProt A2AR95 18-112) (domain or fragment) | 50 | 
2 | LDLRAD3(D1), cleaved monomeric ectodomain of mouse low-density lipoprotein receptor class A domain-c (from UniProt A2AR95 18-70) (domain or fragment) |  | 240
